Literature values in US20040253224A1, “Mammalian mucinase, its recombinant production, and its use in therapy or prophylaxis against diseases in which mucus is involved or infectious diseases” (priority 2001, published 2004).

What was measured:
[1] = in vitro
[2] = aerosolized, Phase 3, cystic fibrosis patients

B1: recombinant human DNase I: recombinant human deoxyribonuclease I, an enzyme that selectively cleaves DNA (Pulmozyme, Genentech) (protein, UniProt P24855 23-282, looked up)
Deoxyribonuclease-1: LKIAAFNIQTFGETKMSNATLVSYIVQILSRYDIALVQEVRDSHLTAVGKLLDNLNQDAPDTYHYVVSEPLGRNSYKERYLFVYRPDQVSAVDSYYYDDGCEPCGNDTFNREPAIVRFFSRFTEVREFAIVPLHAAPGDAVAEIDALYDVYLDVQEKWGLEDVMLMGDFNAGCSYVRPSQWSSIRLWTSPTFQWLIPDSADTTATPTHCAYDRIVVAGMLLRGAVVPDSALPFNFQAAYGLSDQLAQAISDHYPVEVMLK
mucociliary transportability of CF sputum [1]: increased | viscosity and adhesiveness of purulent CF sputum [1]: decrease | improvement in FEV1 [2]: 5.6-5.8% | reduction in respiratory exacerbations [2]: 28-37%
